Results on 3 molecules are retold here after publication PMC10666276 (Biochemistry, 2023).

In general, Km refers to the concentration of substrate that gives half-maximal velocity. A word on the Vmax: it is the top rate of the reaction or transport when substrate is in excess. For orientation: stoichiometry N means a count of units in the complex or per binding partner.

The subject of data set [1] is NC(=O)c1ccc[n+]([C@@H]2O[C@H](COP(=O)(O)OP(=O)(O)OC[C@H]3O[C@@H](n4cnc5c4ncn4ccnc54)[C@H](O)[C@@H]3O)[C@@H](O)[C@H]2O)c1. Put plainly: purified protein. To be noted: 50 mM sodium acetate pH 5.5, 150 mM NaCl, 500 μM CaCl2, 25 °C, 10 ng enzyme.
Text: fluorometric hydrolysis assay, Michaelis-Menten fit on AfNADase
The target of data set [2] is AfNADase^D219A/E220A (Aspergillus fumigatus) (UniProt Q4WL81). Put plainly: crystal structure.
Data set [3] concerns the molecule itself. Put plainly: SEC. In general terms: In gel filtration, larger molecules generally elute earlier.

Turning to AfNADase (Aspergillus fumigatus Af293), in data set [1], the Km came out at 54.8 ± 15.3 µM and the Vmax amounted to 4570 µmol/min/mg.

Molecule “AfNADase^D219A/E220A (from UniProt Q4WL81) (enzyme)” had a stoichiometry N in data set [2] of 2.

B1: Aspergillus fumigatus NADase (AfNADase), wild type (enzyme)
chain: LQHTEDSLFPARCWPDPCAGITFQNDTYVCGDPRLGPVVLPQKFPLNNELRTYARFGALCPAEFLDKWATDVAPNGTYIYPPANGFALDTEEQPILGNATLPVGMKLDRFGSEYGTFLAPLGAPYIERSLPPSNLNTFDGMYPYNYHVYQVTKEFVVGLGPIAPWFEQPGMGTQFVTYTNVLGLIDDGYLRRLDESEYDEKVEYSNPYTPGPNQ
modifications: N-linked glycosylation sites (as observed in the wild-type structure 6YGE)
Regarding B1, the binding result in data set [3] was “binds”.
